The values below come from patent publication US20200362033A1 (Daiichi Sankyo, published 2020).

Assay [1] has as its target T1, human-cynomolgus monkey chimeric CD147 hCD147-mu3, on CHO-K1 cells (human, UniProt P35613 140-385).
T1 construct: also called hCD147-mu3_pcDNA3.1; CD147 with mu3 mutation
T1 chain: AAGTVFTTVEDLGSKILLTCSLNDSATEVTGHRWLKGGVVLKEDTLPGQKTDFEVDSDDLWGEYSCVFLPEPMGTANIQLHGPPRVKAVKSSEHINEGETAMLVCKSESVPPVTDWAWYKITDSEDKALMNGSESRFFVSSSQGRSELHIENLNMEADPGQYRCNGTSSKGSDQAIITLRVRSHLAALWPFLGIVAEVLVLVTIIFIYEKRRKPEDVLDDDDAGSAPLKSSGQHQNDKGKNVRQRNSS
Nature of the assay: flow cytometry, transfected CHO-K1 cells. Background: In flow cytometry, cells or beads pass a laser one at a time.
Procedure: Samples with an increase in fluorescence signals of 10 times or more as compared with those in the control cells that were not treated with primary antibodies were determined to be binding positive (+). Samples with a partial increase in fluorescence signals of less than 10 times were determined to be binding slightly positive (±). Samples with no increase in fluorescence signals as compared with those in the control cells that were not treated with primary antibodies were determined to be binding negative (−).

For assay [2], the target named is T2, human CD147 variant 2 expressed on CHO-K1 cells (pcDNA-DEST40-CD147v2) (human, UniProt P35613 140-385).
T2 construct: also called CHO-K1-hCD147v2; human CD147 expressing CHO-K1 cells
T2 sequence: T1 chain with T45A, D52E, E54K, L60Q
Nature of the assay: flow cytometry, CHO-K1 cells transfected with human CD147v2, antibody 10 µg/ml, anti-mouse IgG-FITC (Example 1)-8).
Source text: In the graphs, the vertical axis represents the number of cells, and the horizontal axis represents the intensity of fluorescence signals.

Where a chain is given by its changes, count along the chain named.

B1: LN22R8 (antibody, V domains shown)
VH: QIQLVQSGPELKKPGETVKISCKASGYTFTNYGMNWVKQAPGKGLKWMGWINTYTGEPTYADDFKGRFAFSLETSASTAYLQINNLKNEDTATYFCARGGYGNYGAGAMDYWGQGTSVTVSS
VL: DIQMTQSPSSLSASLGERVSLTCRASLEISGFLSWLQQKPDGTIKRLIYAASILDSGVPKRFSGSRSGSDYSLTISSLESEDFADYYCLQYASYPWTFGGGTKLEIKR
notes: also called mouse anti-human CD147 antibody (LN22R8)
Take B1: the binding result in assay [1] is “no binding (tested: 10 µg/ml)”; in assay [2], “binds”.

B2: 2P10F2 (antibody, V domains shown)
VH: EVQLQESGPGLVKPSQSLSLTCSVTGYSITSNYWGWIRKFPGNKMEWMGCITYSGGTSYNPSLKSRISITRDTSKNQFFLQLNSVTTEDTATYYCASSYTSGDVDYWGQGVMVTVSS
VL: DIQMTQSPASLSASLGETVSIECLASEGISNSLAWYQQKPGKSPQLLIYGASSLQDGVPSRFSGSGSGTQYSLKISGMQPEDEGVYYCQQGYKYPFTFGSGTKLEIKR
notes: also called 2P10F2 rat antibody
For the molecule B2, in assay [1], the binding result is “no binding (tested: 10 µg/ml)”.
